For experiment [1], the target named is T1, human myostatin (human, UniProt O14793 267-375, biotinylated in selections and radioactive assays (site not stated)).
T1 sequence (looked up): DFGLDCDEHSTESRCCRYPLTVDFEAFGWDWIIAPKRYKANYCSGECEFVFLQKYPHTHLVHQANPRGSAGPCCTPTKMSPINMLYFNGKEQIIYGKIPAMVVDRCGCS
The experiment can be described thus: cell-based or functional assay.

Experiment [2] has as its target T1, human myostatin. The experiment in a line: radioactive equilibrium binding assay.
Experiment [3] has as its target T1, human myostatin. The experiment can be described thus: radioactive equilibrium binding assay. On the procedure:
(§1) Affinities of selected F13β2 binders to biotinylated myostatin were determined in radioactive equilibrium binding assay (FIGS. 11A and 11B; Table 3). ³⁵S-labeled binder proteins from selection pools and single clones were produced in vitro in a rabbit reticulocyte lysate translation kit (Ambion) and purified on M2-agarose (Sigma). Varying concentrations of biotinylated human myostatin (0-100 nM) or other proteins (protein 1: 100 nM; peptide 1: 250 nM; protein 2: 50 nM) were incubated with a constant concentration of the purified binder protein (1 or 2 nM) at 30° C. for 30 min in buffer B (1×PBS, 0.02% Triton X-100 [pH 7.4]). The receptor-binder complexes were captured by using 25 μl of M280 or Protein A (Dynal) (protein 2) magnetic beads for 10 min at room temperature on a Kingfisher instrument (Thermo Fisher Scientific). The beads were washed five times with 100 μl buffer B, and the amount of ³⁵S-methionine remained on the beads was measured by scintillation counting. Data were analyzed by using the GraphPad Prism software (GraphPad Software, Inc., San Diego, Calif.), fitted with a one-site, nonlinear binding equation. For inhibition assay the binding of ³⁵S-labeled proteins to 20 or 25 nM of biotinylated human myostatin was performed in the presence of varying concentrations of inhibitor (human activin receptor IIB/Fc chimera (R&D Systems, Minneapolis, Minn.) (0-250 nM); protein 1 (100 nM), peptide 1 (250 nM), protein 2 (50 nM); proteins, produced in E. coli, M17, M7, M29, M21, M1-1, WT F13β2 (500 nM)).
This is another data set of the same source.

Experiment [4] addresses T2, streptavidin beads (M-280 beads) (UniProt P22629 37-163, limits assumed).
T2 construct: Capture beads used as negative control
The experiment in a line: radioactive equilibrium binding assay.

Experiment [5] concerns the target T3, human β-NGF (human, UniProt P01138 122-241, biotinylated (site not stated)).
T3 construct: also called biotinylated human β-NGF; nerve growth factor
The experiment in a line: radioactive equilibrium binding assay.

The target in experiment [6] is T3, human β-NGF. The experiment in a line: radioactive equilibrium binding assay. Here is the method:
as §1
Selected F13β2 binders were tested for binding to biotinylated β-NGF in radioactive equilibrium binding assay (FIGS. 21A and 21B; Table 4) according to the procedure described for myostatin binders. NGF at concentrations up to 100 nM was incubated with a constant concentration of the purified binder protein (1 or 2 nM) at 30° C. for 1 hour. Affinities to human β-NGF differed greatly between various binders.
The source holds these as a separate data set.

The target of a further experiment is T4, FcεRI-MBP (UniProt P12319 26-205).
T4 construct: Produced in E. coli; order of the two parts is printed both ways (mbp-FcεRI, FcεRI-MBP); also called mbp-FcεRI; mbpFcεRI
T4 sequence (looked up): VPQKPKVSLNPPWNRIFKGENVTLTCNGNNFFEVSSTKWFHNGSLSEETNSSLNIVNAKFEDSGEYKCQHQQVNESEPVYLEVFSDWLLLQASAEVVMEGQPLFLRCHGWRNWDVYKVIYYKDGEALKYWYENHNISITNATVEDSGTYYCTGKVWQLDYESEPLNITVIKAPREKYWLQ
The experiment can be described thus: phage ELISA on target-coated Maxisorp wells, anti-M13 pVIII-HRP. On the procedure:
(§2) An Elisa screening was performed after four rounds of selection to identify binding clones. Randomly picked phagemid clones were incubated with target-coated or buffer-coated Maxisorp wells at room temperature for 1 hour. Unbound phage was removed and the wells were washed eight times with PBS pH 7.4, 0.05% Tween-20. Binding was determined with an anti-M13 pVIII antibody-HRP conjugate (GE). […] Varying levels of binding to targets and the Maxisorp surface were also observed in other clones.

The next experiment addresses chicken lysozyme (chicken, UniProt P00698 19-147). Described as above. Here is the method: as §2

Positions count from the first letter of the chain named. Names and notes keep the numbering of the source. Like-named read-outs stand apart in the source and are kept apart here.

T2 sequence (P22629 37-163 limits assumed): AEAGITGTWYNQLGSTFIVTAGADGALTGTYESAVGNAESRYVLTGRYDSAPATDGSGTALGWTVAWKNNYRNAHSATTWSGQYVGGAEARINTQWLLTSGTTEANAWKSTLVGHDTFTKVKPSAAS
T3 sequence (P01138 122-241 limits assumed): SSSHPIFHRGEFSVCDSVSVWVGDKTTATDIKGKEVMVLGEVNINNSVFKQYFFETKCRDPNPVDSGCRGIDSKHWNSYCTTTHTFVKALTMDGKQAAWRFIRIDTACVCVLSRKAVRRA
Sequence of chicken lysozyme (P00698 19-147 limits assumed): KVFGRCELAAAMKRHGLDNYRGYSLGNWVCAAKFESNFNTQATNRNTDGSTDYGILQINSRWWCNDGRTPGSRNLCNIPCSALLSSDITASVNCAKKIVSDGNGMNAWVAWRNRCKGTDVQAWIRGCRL

B1: M1-1, E. coli-produced (designed binder)
chain: MTIPEIIIKVRGTQVVGSDMTVIVEFTNPLKETLRNVWVHLDGPGVTRPMKKMFPAIPMNHKVQWEEVVRPWVSGHRKLIASMPQLFHIHVYGELDVQIQRRHHHHHH
For the molecule B1, the “EC50 (read off the curve); blocking of myostatin-induced inhibition of MPC-11 proliferation” value in the experiment with human myostatin [1] is around 20 nM.

B2: 45927-B3 (designed binder)
chain: MTIPEIIIKVRGTQVVGSDMTVIVEFTNPLKETLRNVWVHLDGPGVTRPMKKMFLKIPGCSTVQWEEVVRPWVSGHRKLIASMSMLGLPFSLRFIPVYGELDVQIQRRDYKDDDDK
notes: group M1-Aext; extended FG loop; also called Mext (clone ID)
For B2, the dissociation constant Kd with human myostatin [2] is 53 to 86 nM. In the experiment with human myostatin [3], the B max came to 50.7% and the Kd came to 86.7 nM.

B3: 45927-A3 (designed binder)
chain: B2 chain with P58L
notes: group M1-Aext
In the case of B3, the dissociation constant (Kd) with human myostatin [2] was 53 to 86 nM. In the experiment with human myostatin [3], the B max amounted to 36.4% and the dissociation constant Kd is 53.2 nM.

B4: 61362-B8 (I23L) (designed binder)
chain: MTIPEIIIKVRGTQVVGSDMTVLVEFTIPLQDILNVWVHLDGPGVTRPMKKMFFSIRMTPAVQWEEVVRPWVSGHRKLIASMSFHTHRHVYGELDVQIQRRDYKDDDDK
notes: group N4; I23L
Consider B4, for which the binding result in experiment [4] was “no binding”. In addition, the Kd with human β-NGF [5] is below 100 nM. Besides, in the experiment with human β-NGF [6], the B max is 2.1% and the Kd stood at 3.8 nM.

B5: FG6+6 phage clone SNPLSRP / RPHSN / SRSLWLSIGKRH (designed binder)
chain: TIPEIIIKVRGTQVVGSDMTVIVEFSNPLSRPLRNVWVHLDGPGVTRPMKKMFREIRPHSNVQWEEVVRPWVSGHRKLIASMSSRSLWLSIGKRHVYGELDVQIQRR
notes: not shown: 6-his, myc tag and C-terminal domain of M13 pIII (phage display fusion)
Turning to B5, the “Target Binding” value in the experiment with FcεRI-MBP was determined as 3.31.

B6: 39908-F8 (K52R) (designed binder)
chain: MTIPEIIIKVRGTQVVGSDMTVIVEFTNPFKETLRSVWVHLDGPGVTRPMKRMFREIPPETTVQWEEVVRPWVSGHRKLIASMRTQYLIHLYGELDVQIQRRDYKDDDDK
notes: group M1-A50; V91L, K52R
In the case of B6, in the experiment with human myostatin [3], the B max turned out to be 45.7% and the Kd amounted to 36.6 nM.

B7: FG6 phage clone TIPHRGR / QPNVP / RAFLRH (designed binder)
chain: TIPEIIIKVRGTQVVGSDMTVIVEFTIPHRGRLRNVWVHLDGPGVTRPMKKMFREIQPNVPVQWEEVVRPWVSGHRKLIASMSRAFLRHVYGELDVQIQRR
notes: as for B5
Consider B7, for which the “Target Binding” value with chicken lysozyme amounted to 0.34.

B8: 61363-H1 (V15A) (designed binder)
chain: MTIPEIIIKVRGTQAVGSDMTVIVEFTNPLKETLYNVWVHLDGPGVTRPMKKMFWEIRTNHPVQWEEVVRPWVSGHRKLIASMSSNSRDHVYGELDVQIQRRDYKDDDDK
notes: group N4; V15A
In the case of B8, in experiment [4], the binding result is listed as “no binding”. In addition, the equilibrium dissociation constant (Kd) in the experiment with human β-NGF [5] was below 100 nM. In the experiment with human β-NGF [6], the B max was determined as 8.4% and the Kd came to 22.9 nM.

B9: FG6+6 phage clone TNPRRRV / RPRST / WNSRWPAPTRRR (designed binder)
chain: TIPEIIIKVRGTQVVGSDMTVIVEFTNPRRRVLRNVWVHLDGPGVTRPMKKMFREIRPRSTVQWEEVVRPWVSGHRKLIASMSWNSRWPAPTRRRVYGELDVQIQRR
notes: as for B5
As for B9, the “Target Binding” value in the experiment with FcεRI-MBP came to 1.73.

B10: FG6+6 phage clone GNPTKET / RPRSM / YRPRRGGMRLRH (designed binder)
chain: TIPEIIIKVRGTQVVGSDMTVIVEFGNPTKETLRNVWVHLDGPGVTRPMKKMFREIRPRSMVQWEEVVRPWVSGHRKLIASMSYRPRRGGMRLRHVYGELDVQIQRR
notes: as for B5
As to B10, the “Target Binding” value with FcεRI-MBP worked out at 4.

B11: FG6+6 phage clone MNPRMEM / HPDSD / RLWTLWMARWRW (designed binder)
chain: TIPEIIIKVRGTQVVGSDMTVIVEFMNPRMEMLRNVWVHLDGPGVTRPMKKMFREIHPDSDVQWEEVVRPWVSGHRKLIASMSRLWTLWMARWRWVYGELDVQIQRR
notes: as for B5
On to B11, for which the “Target Binding” value with FcεRI-MBP worked out at 2.35.

B12: 61362-C6 (designed binder)
chain: MTIPEIIIKVRGTQVVGSDMTVIVEFTNPLNEPLLFVWVHLDGPGVTRPMKKMFRIISPHATVQWEEVVRPWVSGHRKLIASMSIGFQAHVYGELDVQIQRRDYKDDDDK
notes: group N1
For B12, the binding result in experiment [4] is “no binding”. In the experiment with human β-NGF [6], the B max stood at 5.5% and the Kd was found to be 24 nM.

B13: FG6+6 phage clone TNPLRGT / PPNVK / GLSTAGRWKRVR (designed binder)
chain: TIPEIIIKVRGTQVVGSDMTVIVEFTNPLRGTLRNVWVHLDGPGVTRPMKKMFREIPPNVKVQWEEVVRPWVSGHRKLIASMSGLSTAGRWKRVRVYGELDVQIQRR
notes: as for B5
As for B13, the “Target Binding” value with FcεRI-MBP amounted to 4.

B14: FG6 phage clone INPLQVS / GPSSA / IYRYGL (designed binder)
chain: TIPEIIIKVRGTQVVGSDMTVIVEFINPLQVSLRNVWVHLDGPGVTRPMKKMFREIGPSSAVQWEEVVRPWVSGHRKLIASMSIYRYGLVYGELDVQIQRR
notes: as for B5
As to B14, the “Target Binding” value in the experiment with chicken lysozyme is 4.

B15: FG6 phage clone PSPFIEN / RPECI / RGWLRS (designed binder)
chain: TIPEIIIKVRGTQVVGSDMTVIVEFPSPFIENLRNVWVHLDGPGVTRPMKKMFREIRPECIVQWEEVVRPWVSGHRKLIASMSRGWLRSVYGELDVQIQRR
notes: as for B5
As to B15, in the experiment with chicken lysozyme, the “Target Binding” value came to 1.19.

B16: FG6 phage clone ANPIKHM / RPTAG / LGVLRR (designed binder)
chain: TIPEIIIKVRGTQVVGSDMTVIVEFANPIKHMLRNVWVHLDGPGVTRPMKKMFREIRPTAGVQWEEVVRPWVSGHRKLIASMSLGVLRRVYGELDVQIQRR
notes: as for B5
With B16, the “Target Binding” value in the experiment with chicken lysozyme turned out to be 2.83.

B17: FG6 phage clone RRPTKGN / GPGQV / LGMLRR (designed binder)
chain: B16 chain with A26R, N27R, I29T, H31G, M32N, R57G, T59G, A60Q, G61V, V86M
notes: as for B5
In the case of B17, the “Target Binding” value with chicken lysozyme is 2.45.

B18: 61363-C12 (G45E) (designed binder)
chain: MTIPEIIIKVRGTQVVGSDMTVIVEFTNPLEENLYNVWVHLDGPEVTRPMKKMFYQISTNIPVQWEEVVRPWVSGHRKLIASMGAHTKDHVYGELDVQIQRRDYKDDDDK
notes: group N4; G45E
Turning to B18, the binding result in experiment [4] is on record as “no binding”. Moreover, the Kd with human β-NGF [5] was below 100 nM. In the experiment with human β-NGF [6], the B max stood at 33.6% and the equilibrium dissociation constant (Kd) came out at 36 nM.

B19: 61363-C1 (G17D) (designed binder)
chain: MTIPEIIIKVRGTQVVDSDMTVIVEFTDTVLEILRTVWVHLDGPGVTRPMKKMFPHIRPKVTVQWEEVVRPWVSGHRKLIASMLIASLRHVYGELDVQIQRRDYKDDDDK
notes: group N3; G17D
B19: in experiment [4], the binding result is “no binding”. Besides, in the experiment with human β-NGF [6], the B max amounted to 1.8% and the Kd stood at 2.8 nM.

B20: 61362-F2 (designed binder)
chain: MTIPEIIIKVRGTQVVGSDMTVIVEFINTSNETLPSVWVHLDGPGVTRPMKKMFPEIPPNSSVQWEAWVSGHRKLIASMIRDSSRHVYGELDVQIQRRDYKDDDDK
notes: group N2; Δ67-70, P71A
Turning to B20, the binding result in experiment [4] is on record as “no binding”. Also, the Kd with human β-NGF [5] is below 100 nM. In the experiment with human β-NGF [6], the B max was found to be 35.4% and the Kd was determined as 62 nM.

The record behind these values is US20110059504A1 (GENERAL HOSPITAL, published 2011).
